The values that follow come from article PMC8439434 (2021).

Experiment [1] addresses T1, HLA-B*08:01 (human (endogenous in the Steinlin EBV …)).
Experiment [2] deals with HLA-C*07:01 purified from the Steinlin EBV transformed homozygous cell line (human (endogenous in the Steinlin EBV …)).
Experiment [3] deals with T1, HLA-B*08:01. The source holds these as a separate data set.

Like-named read-outs stand apart in the source and are kept apart here.

Usually IC50 stands for the concentration at which inhibition is half-maximal. Lower therefore signals greater potency. For the molecule SRGTSPARM [SARS-CoV-2 nucleocapsid peptide SRGTSPARM (R203/G204)], the 50% inhibitory concentration (IC50) (with HLA-B*08:01 [1]; in experiment [2]) was more than 50 µM each time.
IRSSYIRVL [peptide 3424.0028 (IRSSYIRVL, DNA replication licensing factor MCM5 289-297)] yielded an IC50 with HLA-B*08:01 [3] of 0.301 µM.
